Data published in publication PMC3799859.

B1: ΔIRE1-V5/His (ER lumenal domain of human IRE1) [human] / FLAG-tagged full-length wild-type IRE1 [human] (parent)
chain 1: IFGSTSTVTLPETLLFVSTLDGSLHAVSKRTGSIKWTLKEDPVLQVPTHVEEPAFLPDPNDGSLYTLGSKNNEGLTKLPFTIPELVQASPCRSSDGILYMGKKQDIWYVIDLLTGEKQQTLSSAFADSLCPSTSLLYLGRTEYTITMYDTKTRELRWNATYFDYAASLPEDDVDYKMSHFVSNGDGLVVTVDSESGDVLWIQNYASPVVAFYVWQREGLRKVMHINVAVETLRYLTFMSGEVGRITKWKYPFPKETEAKSKLTPTLYVGKYSTSLYASPSMVHEGVAVVPRGSTLPLLEGPQTDGVTIGDKGECVITPSTDVKFDPGLKSKNKLNYLRNYWLLIGHHETPLSASTKMLERFPNNLPKHRENVIPADSEKKSFEEVINLVDQTSENAPTTVSRDVEEKPAHAPARPEAPVDSMLKDMATIILSTFLLIGWVAFIITYPLSMHQQQQLQHQQFQKELEKIQLLQQQQQQLPFHPPGDTAQDGELLDTSGPYSESSGTSSPSTSPRASNHSLCSGSSASKAGSSPSLEQDDGDEETSVVIVGKISFCPKDVLGHGAEGTIVYRGMFDNRDVAVKRILPECFSFADREVQLLRESDEHPNVIRYFCTEKDRQFQYIAIELCAATLQEYVEQKDFAHLGLEPITLLQQTTSGLAHLHSLNIVHRDLKPHNILISMPNAHGKIKAMISDFGLCKKLAVGRHSFSRRSGVPGTEGWIAPEMLSEDCKENPTYTVDIFSAGCVFYYVISEGSHPFGKSLQRQANILLGACSLDCLHPEKHEDVIARELIEKMIAMDPQKRPSAKHVLKHPFFWSLEKQLQFFQDVSDRIEKESLDGPIVKQLERGGRAVVKMDWRENITVPLQTDLRKFRTYKGGSVRDLLRAMRNKKHHYRELPAEVRETLGSLPDDFVCYFTSRFPHLLAHTYRAMELCSHERLFQPYYFHEPPEPQPPVTPDAL
chain 2: IFGSTSTVTLPETLLFVSTLDGSLHAVSKRTGSIKWTLKEDPVLQVPTHVEEPAFLPDPNDGSLYTLGSKNNEGLTKLPFTIPELVQASPCRSSDGILYMGKKQDIWYVIDLLTGEKQQTLSSAFADSLCPSTSLLYLGRTEYTITMYDTKTRELRWNATYFDYAASLPEDDVDYKMSHFVSNGDGLVVTVDSESGDVLWIQNYASPVVAFYVWQREGLRKVMHINVAVETLRYLTFMSGEVGRITKWKYPFPKETEAKSKLTPTLYVGKYSTSLYASPSMVHEGVAVVPRGSTLPLLEGPQTDGVTIGDKGECVITPSTDVKFDPGLKSKNKLNYLRNYWLLIGHHETPLSASTKMLERFPNNLPKHRENVIPADSEKKSFEEVINLVDQTSENAPTTVSRDVEEKPAHAPARPEAPVDSMLKD

Variants of: B1
Assay: co-immunoprecipitation (IP: V5, Western blot for FLAG, quantified)
Settings: with FLAG-tagged full-length wild-type IRE1 [human]; with Sig-1R overexpression; non-stressed cells; n = 4; read off a plot

Variant | screen value [%]
chain 2 D105P | 58
